{"source": "paper PMC10183039", "biological_target": "Grp78 (rat (endogenous in hippocampus)) (UniProt P06761)", "sequence (P06761 19-654)": "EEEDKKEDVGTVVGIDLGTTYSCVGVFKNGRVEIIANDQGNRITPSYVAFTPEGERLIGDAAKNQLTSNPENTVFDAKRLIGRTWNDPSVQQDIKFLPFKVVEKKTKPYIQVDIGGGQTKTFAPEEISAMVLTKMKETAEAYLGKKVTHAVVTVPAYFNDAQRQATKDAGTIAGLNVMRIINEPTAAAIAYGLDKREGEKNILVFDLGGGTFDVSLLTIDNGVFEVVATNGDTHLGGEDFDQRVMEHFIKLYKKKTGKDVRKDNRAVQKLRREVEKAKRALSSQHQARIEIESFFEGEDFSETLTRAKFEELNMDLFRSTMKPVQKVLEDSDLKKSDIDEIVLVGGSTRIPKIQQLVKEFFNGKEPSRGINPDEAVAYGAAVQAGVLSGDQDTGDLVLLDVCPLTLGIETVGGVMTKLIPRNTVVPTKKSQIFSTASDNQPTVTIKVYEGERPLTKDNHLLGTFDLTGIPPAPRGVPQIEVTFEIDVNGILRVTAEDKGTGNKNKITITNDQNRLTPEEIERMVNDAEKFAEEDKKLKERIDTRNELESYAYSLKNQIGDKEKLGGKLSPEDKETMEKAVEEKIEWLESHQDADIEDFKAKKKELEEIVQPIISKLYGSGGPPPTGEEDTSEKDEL", "test": "co-IP; primary antibody on Protein A/G magnetic beads in PBS with 0.3% Triton X-100; hippocampal tissue of 3-month-old male rats (WT; APP KO or SNCA KO for comparison) homogenized in RIPA lysis buffer; lysate with beads overnight at 4 °C; four washes with PBST; western blotting"}
{"substance": "IP3R1, P29994 1-2750 (receptor)", "values": [{"measurement": "fold of IP3R1 co-immunoprecipitated with Grp78, APP KO lysate against WT lysate", "value": 1.49, "unit": "fold"}]}
